Assay: 14C assay: 14CO2 capture from [14C]-carboxyl-labeled dicamba with IPTG-induced recombinant E. coli cells
Settings: for Dicamba Decarboxylase Activity: IPTG-induced recombinant E. coli cells, 14CO2 from [14C]-carboxyl-labeled dicamba; for Enzymatic Detection level: dicamba decarboxylation activity

B1: 96 (protein)
chain: MAPLIVDVHTHVYPPAYMQMLRSRKTVPYVHDPSNNRDPRLIILSSDDDASIPLDQRGRPVDSSYWDINVKLSFMRQHGINCSVISLANPWLDFVEPAEAQMWAERINDDLEKTCATVNKAADPGNTLTLDQKETLFAFGALPLSAPSSESVVAEIKRLKTLEHLRGVIMGTSGLGKGLDDARLDPVWEALQETDMLMFLHPHYGLPEEAYGGPETTGRYGHVLPLALGFPLETTIAVTRMLLSGVFDRFPRLKILLAHSGGTLPFLAGRIESCILHERKFISGGGDVQGPQRSVWDVLKTNIYLDAVVYGKPGLEAAMTASGSDRLLFGTDHPFFPPLDSKDNSWPSVTTNYQAIHATFDTNSKTVADVLGGNAARILNLK
modifications: Aspergillus nidulans
Question: Which “Dicamba Decarboxylase Activity” value does the source give for B1 here?
Answer: No

Question: And the “Enzymatic Detection level” value?
Answer: No

B2: 97 (protein, listed as Sphingobium sp.)
chain: MAMMIIDCHGHYTVLPKAHDEWREQQKAAFKAGQPAPPYPEISDDEIRETIEANQLRLIKERGADMTIFSPRASAMAPHVGDQSVAVPWAQACNNLIARVVDLFPETFAGVCMLPQSPEADMTSSIAELERCVNELGFIGCNLNPDPGGGHFKHPPLTDRFWYPFYEKMVELDVPAMIHVSGSCNPAMHATGAYYLAADTIAFMQLLQGNLFADFPTLRFIIPHGGGAVPYHWGRFRGLADMLKQPSLDTLLMNNVFFDTCVYHQPGINLLADVIDNKNILFGSEMVGAVRGIDPTTGHYFDDTKRYIDALDISDQERHAIFEGNTRRVFPRLDAKLKARGL
Question: For B2, which “Dicamba Decarboxylase Activity” value is on record?
Answer: No

Question: And the “Enzymatic Detection level” value?
Answer: No

B3: 98 (protein)
chain: MAIIDCHGHYTTAPAAHDAFRKAQIAHHDDPQQPAPQYPHISDDALRESIEQHQLRLLRERGADMTIFSPRASTMAHHIGNEAVSQVWTQRCNDLIARVVQLYPHTFIGVCQLPQSPGVPISHSIAELERCVNELGFVGCNLNPDPSGGHWNGVPLTDRAWYPFFEKMVELDVPAMVHVSGSCNANFHATGAHYLNADTTAFMQFLEGDLFRDFPSLRFIIPHGGGAVPYHWGRFRGLADMLGKPPLATHVMRNVFFDTCVYHQPGIDLLFEVIDIDNILFGSEMVGAVRGIDPQTGHYFDDTKRYIDALTISDADKRKVFEGNARRVYPRLDAQLRARGL
modifications: Xanthomonas campestris pv.
Question: With B3 as the molecule, how does the “Dicamba Decarboxylase Activity” value read?
Answer: No

Question: What about the “Enzymatic Detection level” value of the same molecule?
Answer: No

B4: 99 (protein, listed as Ralstonia solanacearum)
chain: MAIIDCHGHFTTAPTALEDWRKRQIANLATPALGPSPDDLKISDDALTEAIRANQLRLMQARGSDLTIFSPRASFMAHHIGDFHTSATWAAICNALCHRVSQLFPDHFVGAAMLPQSPGVDIRTCIPELARCIVDYGFVGVNLNPDPSGGHWTSPPLSDPYWFPLYEKLVEYDVPAMIHVSTSCNACFHTTGAHYLNADTTAFMQVLTSDLFRRFPTLKFVIPHGGGAVPYHWGRFRGLAQELKTPPLQEHLLHNVFFDTCVYHQPGIDLLTRVIPVDNILFASEMIGAVRGIDPETGHPFDDTRRYIDQAHTLSAEDRHKIYEGNARRVYPRLDARLKARGR
Question: What does the source list for B4?
Answer: Dicamba Decarboxylase Activity: No; Enzymatic Detection level: No

B5: 101 (protein, listed as Aquifex aeolicus)
chain: MAQKIALCITGASGVIYGIKLLQVLEELDFSVDLVISRNAKVVLKEEHSLTFEEVLKGLKNVRIHEENDFTSPLASGSRLVHYRGVYVVPCSTNTLSCIANGINKNLIHRVGEVALKERVPLVLLVREAPYNEIHLENMLKITRMGGVVVPASPAFYHKPQSIDDMINFVVGKLLDVLRIEHNLYKRWRG
Question: With B5 as the molecule, how does the “Dicamba Decarboxylase Activity” value read?
Answer: No

Question: And the “Enzymatic Detection level” value?
Answer: No

B6: 8 (protein, listed as Metarhizium anisopliae)
chain: MARGKINFEEAFELPTLADSSREQAALYIAPKDLDRYIYHIKHPLGERLQLANSHGIGYTIYSLTVPGIQGIPDQSKAEQHATTVNDWIANEIKDHRDRLGAFAALSMHDAAQAAAELERCVRQHGFHGALLNNYQHAGPDGETYLFYDQPAYDVFWQKCVELDVPVYLHPAAPAGNYYKQMYAQRKYLVGPPLSFANDVSLHLLGLVTNGVFDRFPKLKVVVGHLGEHIPFDFWRISHWLEDVERPLAAGRGDVMSKKDLLYYFKNNIWVTTSGHFSTPTVRYVADYLGPERIMFSVDTPYETIENGVGWFDGEEDALTRALGGEDGYKKVARENAKKLFKLTKYHDCDA
Question: Which “Dicamba Decarboxylase Activity” value does the source give for B6 here?
Answer: Low

Question: And the “Enzymatic Detection level” value?
Answer: Low

B7: 102 (protein, listed as Lactobacillus plantarum)
chain: MATKTFKTLDDFLGTHFIYTYDNGWEYEWYAKNDHTVDYRIHGGMVAGRWVTDQKADIVMLTEGIYKISWTEPTGTDVALDFMPNEKKLHGTIFFPKWVEEHPEITVTYQNEHIDLMEQSREKYATYPKLVVPEFANITYMGDAGQNNEDVISEAPYKEMPNDIRNGKYFDQNYHRLNK
Question: For B7, which “Dicamba Decarboxylase Activity” value is on record?
Answer: No

Question: And the “Enzymatic Detection level” value?
Answer: No

B8: 103 (protein)
chain: MAMEIPTEEIKFLKKEDVQNIDLNGMSKKERYEIWRRIPKVELHCHLDLTFSAEFFLKWARKYNLQPNMSDDEILDHYLFTKEGKSLAEFIRKAISVSDLYRDYDFIEDLAKWAVIEKYKEGVVLMEFRYSPTFVSSSYGLDVELIHKAFIKGIKNATELLNNKIHVALICISDTGHAAASIKHSGDFAIKHKHDFVGFDHGGREIDLKDHKDVYHSVRDHGLHLTVHAGEDATLPNLNTLYTAINILNVERIGHGIRVSESDELIELVKKKDILLEVCPISNLLLNNVKSMDTHPIRKLYDAGVKVSVNSDDPGMFLSNINDNYEKLYIHLNFTLEEFMIMNNWAFEKSFVSDDVKSELKALYF
modifications: Plasmodium yoelii yoelii
Question: For B8, which “Dicamba Decarboxylase Activity” value is on record?
Answer: No

Question: And the “Enzymatic Detection level” value?
Answer: No

B9: 104 (protein)
chain: MANILQEPIDFLKKEELKNIDLSQMSKKERYKIWKRIPKCELHCHLDLCFSADFFVSCIRKYNLQPNLSDEEVLDYYLFAKGGKSLGEFVEKAIKVADIFHDYEVIEDLAKHAVFNKYKEGVVLMEFRYSPTFVAFKYNLDIELIHQAIVKGIKEVVELLDHKIHVALMCIGDTGHEAANIKASADFCLKHKADFVGFDHGGHEVDLKEYKEIFDYVRESGVPLSVHAGEDVTLPNLNTLYSAIQVLKVERIGHGIRVAESQELIDMVKEKNILLEVCPISNVLLKNAKSMDTHPIRQLYDAGVKVSVNSDDPGMFLTNINDDYEELYTHLNFTLEDFMKMNEWALEKSFMDSNIKDKIKNLYF
modifications: Plasmodium Vivax
Question: Which “Dicamba Decarboxylase Activity” value does the source give for B9 here?
Answer: No

Question: What about the “Enzymatic Detection level” value of the same molecule?
Answer: No

B10: 105 (protein)
chain: MAIDFHVHLDLYPDPVAVARACEERQLTVLSVTTTPAAWRGTLALAAGRPHVWTALGFHPEVVSERAADLPWFDRYLPETRFVGEVGLDGSPSLRGTWTQQFAVFQHILRRCEDHGGRILSIHSRRAESEVLNCLEANPRSGTPILHWYSGSVTELRRAISLGCWFSVGPTMVRTQKGAALIRSMPRDRVLTETDGPFLELDGQAALPWDVKSVVEGLSKIWQIPASEVERIVKENVSRLLGTVR
modifications: Deinococcus radiodurans
Question: With B10 as the molecule, how does the “Dicamba Decarboxylase Activity” value read?
Answer: No

Question: What about the “Enzymatic Detection level” value of the same molecule?
Answer: No

B11: 106 (protein, listed as Pyrococcus horikoshii)
chain: MAGMKFIKNLHVSKLVIDSMKALINGTIYTSFNPLKKVSGLVISHGKVIYAGDSEVAKKIVELSGGEIVDLKGKYVMPAFFDSHLHLDELGMSLEMVDLRGAKSIEELIQRLKRGKGRIIFGFGWDQDELGEWPTRKELNAIDKPVFIYRKCFHVAVANDKMLELLNLTPSKDFDEDTGIIKEKSLEEARKVINERVLTVEDYVYYIKRAQEHLLDLGVKSVSFMSVNEKALRALFYLEREGKLSINVFAYVTPEVLDKLESIGLGRFQGNRLTIAGVKLFTDGSLGARTALLSKPYSDDPSTSGQLVMEREELIRITEKARSLGLDVAIHAIGDKALDVALDVFETTGFPGRIEHASLVRDDQLERVKNLKVRLSVQPHFIISDWWIVERVGEERVKWVYRFKDLMKVAELGFSTDSPIEPADPWLTVDAAVNRGKGKVKLYELTKDQALDIKDALHSYTYGSARVSLASDIGKLEPGFKAEYIILDRDPLVVK
Question: Which results are given for B11?
Answer: Dicamba Decarboxylase Activity: No; Enzymatic Detection level: No

From US20140289906A1, “Compositions Having Dicamba Decarboxylase Activity and Methods of Use” (priority 2013, published 2014)
